Source: publication PMC5331437, “Synthesis of Mono- and Di-Glucosides of Zearalenone and α-/β-Zearalenol by Recombinant Barley Glucosyltransferase HvUGT14077” (Toxins, 2017)

Tests used:
HvUGT14077 [1] = biological target: T1, HvUGT14077 (Hordeum vulgare, UniProt D3WYW3); assay: LC-MS/MS, steady state, sum of […]- and 16-glucosides, Haldane fit; parameters: gene UGT; settings: read-out: Kinetic Constant / Km; 10 mM UDP-glucose; 100 mM Tris/Cl pH 7.5, 37 °C; apparent Km, substrate inhibition model
T1 sequence (D3WYW3 1-490): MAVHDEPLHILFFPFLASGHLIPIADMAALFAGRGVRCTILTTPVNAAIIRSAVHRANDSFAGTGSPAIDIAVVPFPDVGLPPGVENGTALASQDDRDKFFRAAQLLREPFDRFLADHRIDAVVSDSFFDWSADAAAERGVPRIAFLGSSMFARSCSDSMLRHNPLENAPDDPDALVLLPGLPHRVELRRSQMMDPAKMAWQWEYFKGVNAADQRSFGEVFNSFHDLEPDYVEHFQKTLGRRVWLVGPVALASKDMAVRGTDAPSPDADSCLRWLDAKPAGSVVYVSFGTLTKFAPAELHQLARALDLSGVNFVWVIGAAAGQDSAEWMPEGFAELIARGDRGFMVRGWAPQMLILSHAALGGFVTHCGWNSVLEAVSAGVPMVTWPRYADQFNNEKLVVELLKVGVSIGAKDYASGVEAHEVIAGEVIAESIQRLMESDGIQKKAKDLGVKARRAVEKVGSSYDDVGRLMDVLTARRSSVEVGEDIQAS

HvUGT14077 [2] = biological target: T1, HvUGT14077; assay: LC-MS/MS of glucoside formation; format: biochemical; parameters: gene UGT; nHis6-MalE-TEV-HvUGT14077 fusion (tags kept), E. coli BL21 (DE3), IMAC, predicted 97 kDa incl. tags
purified protein [3] = substrate: C[C@H]1CCC[C@@H](O)CCC/C=C/c2cc(O)cc(O)c2C(=O)O1; assay: purified protein; settings: 10 mM UDP-glucose, 100 mM Tris/Cl pH 7.5, 37 °C, apparent Km, substrate inhibition model
purified protein [4] = substrate: C[C@H]1CCC[C@H](O)CCC/C=C/c2cc(O)cc(O)c2C(=O)O1; assay: purified protein; settings: 10 mM UDP-glucose, 100 mM Tris/Cl pH 7.5, 37 °C, apparent Km, substrate inhibition model
purified protein [5] = substrate: O=c1ccn([C@@H]2O[C@H](CO[P@@](=O)(O)O[P@@](=O)(O)O[C@H]3O[C@H](CO)[C@@H](O)[C@H](O)[C@H]3O)[C@@H](O)[C@H]2O)c(=O)[nH]1; assay: purified protein; settings: 25 µM zearalenone, 100 mM Tris/Cl pH 7.5, 37 °C

Work on `C[C@H]1CCCC(=O)CCC/C=C/c2cc(O)cc(O)c2C(=O)O1` [ZEN, Zearalenone] yielded a Km (HvUGT14077 [1]) of 3 ± 1 µM.

Molecule `O=c1ccn([C@@H]2O[C@H](COP(=O)(O)OP(=O)(O)O)[C@@H](O)[C@H]2O)c(=O)[nH]1` [UDP] has an IC50 (HvUGT14077 [2]) of 340 µM.

B1: HvUGT14077 (Hordeum vulgare subsp. vulgare) (protein)
chain: T1 sequence (D3WYW3 1-490)
Work on B1 yielded a Km (purified protein [3]) of 27 ± 3 µM, a Vmax (purified protein [3]) of 1.2 µmol/min/mg and a kcat (purified protein [3]) of 2 ± 0.1 s⁻¹. It also gave a kcat/Km (purified protein [3]) of 74000 M⁻¹ s⁻¹, a Km (purified protein [4]) of 13 ± 2 µM and a Vmax (purified protein [4]) of 0.32 µmol/min/mg. The kcat (purified protein [4]) was 0.52 ± 0.05 s⁻¹, the kcat/Km (purified protein [4]) was 40000 M⁻¹ s⁻¹ and the Km (purified protein [5]) was 78 ± 9 µM.
